B1: ZNF263 (parent)
chain: CSECGESFSRSSRLMSHQRTHTG

Variants of: B1
Test: protein stability index of a GFP-peptide fusion (GPS, HEK-293T) (PSI 1-6); higher = more stable
Settings: c terminus: native
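Also: lentivirally expressed fusions sorted by FACS into six bins by GFP to DsRed ratio, PSI derived from sequencing read proportions per bin multiplied by bin number.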

Variant | protein stability index
CSECGESFSRSSWLMSHQRTHTG [R13W] | 2.56
CSECGESFSRSSALMSHQRTHTG [R13A] | 4.91
CSECGESFSRSSSLMSHQRTHTG [R13S] | 4.84
CSECGESFSRSSELMSHQRTHTG [R13E] | 5.6
CSECGESFSRSSNLMSHQRTHTG [R13N] | 4.26
CSECGESFSRSSYLMSHQRTHTG [R13Y] | 3.6
CSECGESFSRSSGLMSHQRTHTG [R13G] | 3.3
CSECGESFSRSSPLMSHQRTHTG [R13P] | 2.43
CSECGESFSRSSDLMSHQRTHTG [R13D] | 5.63
CSECGESFSRSSCLMSHQRTHTG [R13C] | 4.52
CSECGESFSRSSMLMSHQRTHTG [R13M] | 4.03
CSECGESFSRSSQLMSHQRTHTG [R13Q] | 4.66
CSECGESFSRSSKLMSHQRTHTG [R13K] | 4.19
CSECGESFSRSSLLMSHQRTHTG [R13L] | 4.84
CSECGESFSRSSVLMSHQRTHTG [R13V] | 4.14
CSECGESFSRSSHLMSHQRTHTG [R13H] | 4.79
CSECGESFSRSSTLMSHQRTHTG [R13T] | 4.34
CSECGESFSRSSFLMSHQRTHTG [R13F] | 3.48
CSECGESFSRSSILMSHQRTHTG [R13I] | 3.96
CSECGESFSRSSRLMRHQRTHTG [S16R] | 3.69
CSECGESFSRSSRLMHHQRTHTG [S16H] | 2.64
CSECGESFSRSSRLMNHQRTHTG [S16N] | 2.14
CSECGESFSRSSRLMEHQRTHTG [S16E] | 4.89
CSECGESFSRSSRLMLHQRTHTG [S16L] | 3.83
CSECGESFSRSSRLMWHQRTHTG [S16W] | 1.83

Variant | protein stability index
CSECGESFSRSSRLMDHQRTHTG [S16D] | 4.8
CSECGESFSRSSRLMFHQRTHTG [S16F] | 2.28
CSECGESFSRSSRLMMHQRTHTG [S16M] | 4.14
CSECGESFSRSSRLMYHQRTHTG [S16Y] | 1.93
CSECGESFSRSSRLMIHQRTHTG [S16I] | 2.88
CSECGESFSRSSRLMAHQRTHTG [S16A] | 3.8
CSECGESFSRSSRLMCHQRTHTG [S16C] | 3.1
CSECGESFSRSSRLMVHQRTHTG [S16V] | 3.49
CSECGESFSRSSRLMTHQRTHTG [S16T] | 3.34
CSECGESFSRSSREMSHQRTHTG [L14E] | 2.35
CSECGESFSRSSRFMSHQRTHTG [L14F] | 2.43
CSECGESFSRSSRHMSHQRTHTG [L14H] | 1.55
CSECGESFSRSSRAMSHQRTHTG [L14A] | 2.39
CSECGESFSRSSRGMSHQRTHTG [L14G] | 1.62
CSECGESFSRSSRPMSHQRTHTG [L14P] | 1.67
CSECGESFSRSSRVMSHQRTHTG [L14V] | 1.45
CSECGESFSRSSRDMSHQRTHTG [L14D] | 2.74
CSECGESFSRSSRQMSHQRTHTG [L14Q] | 1.32
CSECGESFSRSSRMMSHQRTHTG [L14M] | 1.87
CSECGESFSRSSRWMSHQRTHTG [L14W] | 1.96
CSECGESFSRSSRTMSHQRTHTG [L14T] | 2.05
CSECGESFSRSSRYMSHQRTHTG [L14Y] | 2.98
CSECGESFSRSSRNMSHQRTHTG [L14N] | 2.12
CSECGESFSRTSRLMSHQRTHTG [S11T] | 2.54
CSECGESFSRRSRLMSHQRTHTG [S11R] | 2.31

Variant | protein stability index
CSECGESFSRVSRLMSHQRTHTG [S11V] | 4.71
CSECGESFSRYSRLMSHQRTHTG [S11Y] | 3.67
CSECGESFSRSSRLMSLQRTHTG [H17L] | 1.38
CSECGESFSRSSRLMSIQRTHTG [H17I] | 3.2
CSECGESFSRSSRLMSEQRTHTG [H17E] | 2.38
CSECGESFSRSSRLMSCQRTHTG [H17C] | 2.42
CSECGESFSRSSRLMSDQRTHTG [H17D] | 2.52
CSECGESFSRSSRLMSKQRTHTG [H17K] | 2.76
CSECGESFSRSSRLMSFQRTHTG [H17F] | 2.73
CSECGESFSRSSRLMSAQRTHTG [H17A] | 1.44
CSECGESFSRSHRLMSHQRTHTG [S12H] | 2.66
CSECGESFSRSQRLMSHQRTHTG [S12Q] | 2.38
CSECGESFSRSMRLMSHQRTHTG [S12M] | 2.58
CSECGESFSRSKRLMSHQRTHTG [S12K] | 1.99
CSECGESFSRSGRLMSHQRTHTG [S12G] | 1.91
CSECGESFSRSARLMSHQRTHTG [S12A] | 2.13
CSECGESFSRSTRLMSHQRTHTG [S12T] | 1.72
CSECGESFSRSRRLMSHQRTHTG [S12R] | 2.23
CSECGESFSRSFRLMSHQRTHTG [S12F] | 1.86
CSECGESFSRSLRLMSHQRTHTG [S12L] | 2.01
CSECGESFSRSPRLMSHQRTHTG [S12P] | 2.06
CSECGESFSRSIRLMSHQRTHTG [S12I] | 2.4
CSECGESFSRSNRLMSHQRTHTG [S12N] | 2.52
CSECGESFSRSCRLMSHQRTHTG [S12C] | 3.76
CSECGESFSRSVRLMSHQRTHTG [S12V] | 1.86

Variant | protein stability index
CSECGESFSRSDRLMSHQRTHTG [S12D] | 4.42
CSECGESFSRSWRLMSHQRTHTG [S12W] | 2.13
CSECGESFSRSYRLMSHQRTHTG [S12Y] | 2.65
CSECGESFSRSSRLISHQRTHTG [M15I] | 3.54
CSECGESFSRSSRLWSHQRTHTG [M15W] | 1.85
CSECGESFSRSSRLSSHQRTHTG [M15S] | 2.19
CSECGESFSRSSRLYSHQRTHTG [M15Y] | 2.83
CSECGESFSRSSRLLSHQRTHTG [M15L] | 3.13
CSECGESFSRSSRLESHQRTHTG [M15E] | 3.72
CSECGESFSRSSRLRSHQRTHTG [M15R] | 3.03
CSECGESFSRSSRLASHQRTHTG [M15A] | 3.54
CSECGESFSRSSRLCSHQRTHTG [M15C] | 2.75
CSECGESFSRSSRLQSHQRTHTG [M15Q] | 3.51
CSECGESFSRSSRLTSHQRTHTG [M15T] | 2.54
CSECGESFSRSSRLDSHQRTHTG [M15D] | 3.48
CSECGESFSRSSRLFSHQRTHTG [M15F] | 3.2
CSECGESFSRSSRLPSHQRTHTG [M15P] | 1.72
CSECGESFSRSSRLHSHQRTHTG [M15H] | 3.24
CSECGESFSRSSRLGSHQRTHTG [M15G] | 1.98
CSECGESFSRSSRLVSHQRTHTG [M15V] | 2.54
CSECGESFSRSSRLNSHQRTHTG [M15N] | 2.22
CSECGESFSRSSRLKSHQRTHTG [M15K] | 3.97

From the supplement of paper PMC10567573
